Reference: publication PMC9482650, “Quantitative fragmentomics allow affinity mapping of interactomes” (Nature Communications, 2022)

Columns and labels:
Assay in all cases: holdup assay
Set-up in all cases: key: below the threshold = too weak to quantify, mostly under pKd 3.1 to 4
[1] = target: T1, APBA3_1, O96018
T1 sequence (O96018 389-490, limits assumed, looked up): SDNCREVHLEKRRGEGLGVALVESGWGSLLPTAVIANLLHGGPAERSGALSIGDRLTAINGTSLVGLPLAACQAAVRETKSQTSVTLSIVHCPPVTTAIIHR

[2] = target: CASK, O14936
[3] = target: T2, DFNB31_3, Q9P202
T2 sequence (Q9P202 811-907, limits assumed, looked up): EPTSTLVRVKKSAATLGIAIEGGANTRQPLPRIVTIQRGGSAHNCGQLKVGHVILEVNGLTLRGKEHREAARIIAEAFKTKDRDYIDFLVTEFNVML

[4] = target: DLG2_2, Q15700
[5] = target: DLG2_3, Q15700
[6] = target: DLG5_1, Q8TDM6
[7] = target: FRMPD2_2, Q68DX3
[8] = target: FRMPD4, Q14CM0
[9] = target: GIPC2, Q8TF65
[10] = target: GOPC, Q9HD26
[11] = target: GRID2IP_1, A4D2P6
[12] = target: GRIP2_6, Q9C0E4
[13] = target: IL16_4, Q14005
[14] = target: Inadl_1, Q8NI35
[15] = target: LDB3, O75112
[16] = target: T3, LIN7C, Q9NUP9
T3 sequence (Q9NUP9 88-185, limits assumed, looked up): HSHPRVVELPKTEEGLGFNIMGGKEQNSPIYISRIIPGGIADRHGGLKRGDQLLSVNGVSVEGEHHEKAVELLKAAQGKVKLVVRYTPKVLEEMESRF

[17] = target: MAGI2_2, Q86UL8
[18] = target: MAGI2_3, Q86UL8
[19] = target: T4, MPDZ_10, O75970
T4 sequence (O75970 1624-1722, limits assumed, looked up): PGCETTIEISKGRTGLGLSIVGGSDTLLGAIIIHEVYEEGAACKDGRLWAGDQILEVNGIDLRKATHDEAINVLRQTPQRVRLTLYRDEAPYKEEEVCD

[20] = target: T5, MPDZ_12, O75970
T5 sequence (O75970 1857-1958, limits assumed, looked up): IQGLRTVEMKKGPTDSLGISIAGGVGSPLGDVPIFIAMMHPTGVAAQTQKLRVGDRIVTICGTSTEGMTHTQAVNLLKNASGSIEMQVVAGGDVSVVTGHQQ

[21] = target: NHERF2_2, Q15599
[22] = target: T6, NHERF3_1, Q5T2W1
T6 sequence (Q5T2W1 4-100, limits assumed, looked up): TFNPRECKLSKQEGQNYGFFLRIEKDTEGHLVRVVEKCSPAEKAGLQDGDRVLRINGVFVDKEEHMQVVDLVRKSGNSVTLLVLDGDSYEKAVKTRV

[23] = target: T7, PARD3B_1, Q8TEW8
T7 sequence (Q8TEW8 196-299, limits assumed, looked up): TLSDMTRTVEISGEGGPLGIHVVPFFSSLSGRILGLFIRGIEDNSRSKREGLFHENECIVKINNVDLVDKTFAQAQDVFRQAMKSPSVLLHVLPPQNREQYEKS

[24] = target: T8, RAPGEF6, Q8TEU7
T8 sequence (Q8TEU7 525-625, limits assumed, looked up): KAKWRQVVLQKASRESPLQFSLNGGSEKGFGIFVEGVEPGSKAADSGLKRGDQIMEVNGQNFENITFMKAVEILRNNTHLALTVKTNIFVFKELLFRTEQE

[25] = target: SCRIB_1, Q14160
[26] = target: T9, SNTA1, Q13424
T9 sequence (Q13424 82-180, limits assumed, looked up): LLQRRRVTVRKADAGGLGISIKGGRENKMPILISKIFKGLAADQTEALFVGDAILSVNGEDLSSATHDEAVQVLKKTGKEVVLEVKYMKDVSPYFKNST

[27] = target: T10, SNTG1, Q9NSN8
T10 sequence (Q9NSN8 52-150, limits assumed, looked up): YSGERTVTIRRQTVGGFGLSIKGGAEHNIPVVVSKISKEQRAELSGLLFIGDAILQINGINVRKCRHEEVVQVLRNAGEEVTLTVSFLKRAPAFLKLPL

[28] = target: TJP1_3, Q07157
[29] = plain residues with an end cap or a label only (N-terminal biotin on a linker: ado-ado)
[30] = plain residues with an end cap or a label only (N-terminal biotin on a linker: (peg)3)

Measured: pKd

Chain of TJP1_3, Q07157 (Q07157 416-512): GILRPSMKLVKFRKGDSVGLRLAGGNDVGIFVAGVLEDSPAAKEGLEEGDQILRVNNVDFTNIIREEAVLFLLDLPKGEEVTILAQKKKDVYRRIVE
Chain of SCRIB_1, Q14160 (Q14160 718-814): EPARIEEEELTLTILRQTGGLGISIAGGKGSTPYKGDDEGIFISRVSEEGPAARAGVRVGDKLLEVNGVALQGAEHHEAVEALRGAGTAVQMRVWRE
Chain of IL16_4, Q14005 (Q14005 1229-1329): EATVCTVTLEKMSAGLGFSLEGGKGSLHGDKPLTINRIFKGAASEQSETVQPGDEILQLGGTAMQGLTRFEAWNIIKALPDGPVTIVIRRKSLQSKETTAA
Chain of GRID2IP_1, A4D2P6 (A4D2P6 1-87): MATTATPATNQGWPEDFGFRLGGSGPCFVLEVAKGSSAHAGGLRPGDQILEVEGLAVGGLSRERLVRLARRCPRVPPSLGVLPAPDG
Chain of FRMPD4, Q14CM0 (Q14CM0 67-160): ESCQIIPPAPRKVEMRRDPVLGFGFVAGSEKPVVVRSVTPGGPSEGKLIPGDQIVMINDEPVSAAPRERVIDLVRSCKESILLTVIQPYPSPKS
Chain of CASK, O14936 (O14936 487-570): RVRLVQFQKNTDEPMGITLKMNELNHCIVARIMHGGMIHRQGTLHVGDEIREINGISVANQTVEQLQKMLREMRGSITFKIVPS
Chain of GRIP2_6, Q9C0E4 (Q9C0E4 648-740): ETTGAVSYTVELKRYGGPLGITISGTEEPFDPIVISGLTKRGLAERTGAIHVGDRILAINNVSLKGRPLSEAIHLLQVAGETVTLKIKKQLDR
Chain of MAGI2_2, Q86UL8 (Q86UL8 410-522): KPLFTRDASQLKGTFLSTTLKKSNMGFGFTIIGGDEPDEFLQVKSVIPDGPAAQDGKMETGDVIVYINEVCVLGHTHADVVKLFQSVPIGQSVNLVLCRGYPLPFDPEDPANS
Chain of MAGI2_3, Q86UL8 (Q86UL8 600-682): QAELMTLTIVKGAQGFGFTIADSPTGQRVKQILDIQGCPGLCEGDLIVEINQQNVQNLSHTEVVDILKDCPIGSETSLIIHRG
Chain of DLG5_1, Q8TDM6 (Q8TDM6 617-713): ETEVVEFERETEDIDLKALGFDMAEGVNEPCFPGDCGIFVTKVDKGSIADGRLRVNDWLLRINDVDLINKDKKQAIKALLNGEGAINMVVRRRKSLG
Chain of GIPC2, Q8TF65 (Q8TF65 112-203): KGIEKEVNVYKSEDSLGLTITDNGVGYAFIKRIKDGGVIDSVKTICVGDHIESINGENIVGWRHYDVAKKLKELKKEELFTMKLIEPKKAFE
Chain of FRMPD2_2, Q68DX3 (Q68DX3 944-1038): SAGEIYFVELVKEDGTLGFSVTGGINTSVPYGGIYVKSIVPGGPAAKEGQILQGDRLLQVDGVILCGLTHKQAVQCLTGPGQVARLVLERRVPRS
Chain of LDB3, O75112 (O75112 1-94): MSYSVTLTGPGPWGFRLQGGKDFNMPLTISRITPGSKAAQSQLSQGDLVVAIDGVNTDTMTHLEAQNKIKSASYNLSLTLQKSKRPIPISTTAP
Chain of Inadl_1, Q8NI35 (Q8NI35 113-229): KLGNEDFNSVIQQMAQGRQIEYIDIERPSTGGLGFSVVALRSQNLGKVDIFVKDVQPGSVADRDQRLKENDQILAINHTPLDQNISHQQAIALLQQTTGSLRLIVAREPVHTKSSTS
Chain of NHERF2_2, Q15599 (Q15599 142-238): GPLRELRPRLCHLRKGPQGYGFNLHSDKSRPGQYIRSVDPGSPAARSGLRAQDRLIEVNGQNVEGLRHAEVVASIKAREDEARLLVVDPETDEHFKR

B1: PLEKHA1, Q9HB21 (peptide)
chain: DDASLPVSDV
4.01: [16]; [29]
5.09: [27]; [29]
4.44: [26]; [29]
below the threshold: [1]; [29] | [2]; [29] | [4]; [29] | [5]; [29] | [6]; [29] | [8]; [29] | [9]; [29] | [11]; [29] | [12]; [29] | [13]; [29] | [14]; [29] | [15]; [29] | [17]; [29] | [18]; [29] | [20]; [29] | [21]; [29] | [22]; [29] | [23]; [29] | [24]; [29] | [25]; [29] | [28]; [29]
3.91: [19]; [29]
4.87: [7]; [29]
4.25: [10]; [29]
4.54: [3]; [29]

B2: TRIP6, Q15654 (peptide)
chain: ELSATVTTDC
3.59: [4]; [29]
3.47: [7]; [29]
3.62: [3]; [29]
3.57: [5]; [29]
4.48: [25]; [29]
3.83: [21]; [29]
3.72: [15]; [29]
3.92: [26]; [29]
3.56: [18]; [29]
below the threshold: [1]; [29] | [2]; [29] | [6]; [29] | [8]; [29] | [9]; [29] | [10]; [29] | [11]; [29] | [12]; [29] | [13]; [29] | [14]; [29] | [16]; [29] | [17]; [29] | [19]; [29] | [20]; [29] | [22]; [29] | [23]; [29] | [24]; [29] | [28]; [29]
3.48: [27]; [29]

B3: AQP3, Q92482 (peptide)
chain: LAHVKHKEQI
below the threshold: [1]; [29] | [2]; [29] | [3]; [29] | [4]; [29] | [5]; [29] | [6]; [29] | [7]; [29] | [8]; [29] | [9]; [29] | [10]; [29] | [11]; [29] | [12]; [29] | [13]; [29] | [14]; [29] | [15]; [29] | [16]; [29] | [17]; [29] | [18]; [29] | [19]; [29] | [20]; [29] | [21]; [29] | [22]; [29] | [23]; [29] | [24]; [29] | [25]; [29] | [26]; [29] | [27]; [29] | [28]; [29]

B4: SARS-Cov2-N, P0DTC9 (peptide)
chain: QQSMSSADSTQA
below the threshold: [1]; [30] | [2]; [30] | [3]; [30] | [4]; [30] | [5]; [30] | [6]; [30] | [7]; [30] | [8]; [30] | [9]; [30] | [10]; [30] | [11]; [30] | [12]; [30] | [13]; [30] | [14]; [30] | [15]; [30] | [16]; [30] | [17]; [30] | [18]; [30] | [19]; [30] | [20]; [30] | [21]; [30] | [22]; [30] | [23]; [30] | [24]; [30] | [25]; [30] | [26]; [30] | [27]; [30] | [28]; [30]

B5: SLC22A9, Q8IVM8 (peptide)
chain: EDPRVEVTQF
4.26: [23]; [29]
3.84: [3]; [29]
4.58: [22]; [29]
3.91: [25]; [29]
below the threshold: [1]; [29] | [2]; [29] | [4]; [29] | [6]; [29] | [7]; [29] | [8]; [29] | [9]; [29] | [10]; [29] | [11]; [29] | [12]; [29] | [13]; [29] | [14]; [29] | [15]; [29] | [16]; [29] | [17]; [29] | [18]; [29] | [19]; [29] | [20]; [29] | [24]; [29] | [26]; [29] | [27]; [29] | [28]; [29]
4.61: [21]; [29]
3.71: [5]; [29]
